From publication PMC12713436 (2025)

Target: secretory immunoglobulin A1 (sIgA1) from human colostrum (human (endogenous in colostrum), UniProt P01591 23-159; P01833 19-603, dense O-glycosylation, predominantly in the hinge region)
Test: apparent Kd from DLS Hill fit, h = 2.04

Chain of secretory immunoglobulin A1 (sIgA1) from human colostrum (chain, as listed by the source, chain 1 of 3): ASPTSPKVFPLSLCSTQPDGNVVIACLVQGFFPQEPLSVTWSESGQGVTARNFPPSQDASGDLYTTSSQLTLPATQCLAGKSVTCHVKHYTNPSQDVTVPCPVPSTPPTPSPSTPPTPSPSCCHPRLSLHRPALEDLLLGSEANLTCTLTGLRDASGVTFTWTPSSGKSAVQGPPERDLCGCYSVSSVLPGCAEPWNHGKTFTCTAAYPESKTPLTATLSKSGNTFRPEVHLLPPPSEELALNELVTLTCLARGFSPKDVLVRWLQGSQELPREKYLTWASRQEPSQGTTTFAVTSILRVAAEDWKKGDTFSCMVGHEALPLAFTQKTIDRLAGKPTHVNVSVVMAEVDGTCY
Chain of secretory immunoglobulin A1 (sIgA1) from human colostrum (P01591 23-159, chain 2 of 3): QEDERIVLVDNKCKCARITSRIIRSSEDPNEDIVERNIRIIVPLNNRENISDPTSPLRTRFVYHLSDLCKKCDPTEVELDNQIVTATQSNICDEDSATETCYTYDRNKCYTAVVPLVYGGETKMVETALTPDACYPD
Chain of secretory immunoglobulin A1 (sIgA1) from human colostrum (P01833 19-603, chain 3 of 3): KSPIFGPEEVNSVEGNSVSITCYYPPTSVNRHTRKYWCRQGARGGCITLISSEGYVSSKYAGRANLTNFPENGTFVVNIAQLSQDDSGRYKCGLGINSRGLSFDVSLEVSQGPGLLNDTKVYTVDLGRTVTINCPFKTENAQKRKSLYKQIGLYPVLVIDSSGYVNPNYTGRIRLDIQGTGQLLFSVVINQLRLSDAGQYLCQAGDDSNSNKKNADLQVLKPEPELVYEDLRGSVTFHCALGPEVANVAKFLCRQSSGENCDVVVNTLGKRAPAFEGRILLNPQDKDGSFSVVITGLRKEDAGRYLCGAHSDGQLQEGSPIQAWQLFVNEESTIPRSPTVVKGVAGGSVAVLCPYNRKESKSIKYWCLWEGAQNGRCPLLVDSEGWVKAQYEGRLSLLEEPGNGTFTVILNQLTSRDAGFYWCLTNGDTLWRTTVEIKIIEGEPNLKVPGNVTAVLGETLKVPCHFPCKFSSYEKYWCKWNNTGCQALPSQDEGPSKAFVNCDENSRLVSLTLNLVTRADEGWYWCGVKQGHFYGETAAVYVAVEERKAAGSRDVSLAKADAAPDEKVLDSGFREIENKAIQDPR

B1: frutalin (FTL), galactose-specific jacalin-related lectin from Artocarpus altilis (syn. Artocarpus incisa) seeds (natural protein)
chain 1: GKAFDDGAFTGIREINLSYNKETAIGDFQVIYDLNGSPFVGQNHTSFITGFTPVKISLDFPSEYIIEVSGHTGKVSGYVVVRSLAFKTNKKTYGPYGVTSGTPFNLPIENGLIVGFKGSIGYWLDYFSMYLSL
chain 2: AEQSGKSQTVIVGPWGAQVS
modifications: α-chain glycoisoforms (differential glycosylation and limited proteolysis)
- Kd: 930 nM
